Assay results taken from PMC9496550.

Molecular target: full length human kynurenine 3-monooxygenase fused to the C-terminal fragment of CFP (flKMO-CC) (human) (UniProt O15229)
Experiment: split reporter (BiFC, NanoBiT); BiFC in live HEK293T cells 48 h after co-transfection, 37 °C, 5% CO2; CC + VN (KMO with HTT) or VN + VC (HTT with HTT) complementation; ScanR screening station (mean green intensity normalised by co-transfected RFP) or confocal microscopy

UniProt O15229, sequence (O15229 whole entry, the tested form may be a part): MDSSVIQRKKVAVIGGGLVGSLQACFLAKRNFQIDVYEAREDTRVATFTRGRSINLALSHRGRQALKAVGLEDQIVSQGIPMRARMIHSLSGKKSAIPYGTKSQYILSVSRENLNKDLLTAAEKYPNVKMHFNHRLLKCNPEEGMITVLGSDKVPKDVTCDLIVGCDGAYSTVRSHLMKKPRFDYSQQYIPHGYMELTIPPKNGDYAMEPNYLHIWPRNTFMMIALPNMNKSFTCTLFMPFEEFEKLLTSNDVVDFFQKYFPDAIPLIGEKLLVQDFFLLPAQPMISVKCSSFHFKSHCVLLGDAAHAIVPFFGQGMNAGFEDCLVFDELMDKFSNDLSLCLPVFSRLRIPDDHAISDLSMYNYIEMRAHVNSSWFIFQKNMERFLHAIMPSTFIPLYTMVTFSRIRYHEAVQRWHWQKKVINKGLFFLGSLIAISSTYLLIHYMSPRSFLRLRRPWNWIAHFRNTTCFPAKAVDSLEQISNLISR

reduction of the BiFC signal against flKMO-19Q: 50%
Substance: HTT exon 1 fragment with 97 glutamines fused to the N-terminal half of Venus (HTT97Q-VN) (domain or fragment)
